Test results taken from the supplement of paper PMC11196671.

Columns and labels:
[1] = PET hydrolysis product formed (TPA+MHET+BHET, UV-Vis) per mg enzyme (mmol/mg enzyme); higher = more PET depolymerisation activity; extreme values may be limits of the assay; conditions: 24 h
Protocol: (§1)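 Purified PET hydrolases, 2.5 ug enzyme on 3.5 mg amorphous PET film (aFilm) or crystalline PET powder (cryPow) in 0.5 mL of 50 mM buffer (NaCitrate pH 4.5/5.5, NaPhosphate 6.5/7.5, glycine 8.5/9.5) at 60 or 70 C with shaking for 24 h. Total aromatic product by UV-Vis (260/280 nm, blank-subtracted, normalised per mg enzyme) and individual TPA, MHET, BHET concentrations by UHPLC-DAD at 240 nm; duplicate reactions.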

[2] = terephthalic acid (TPA) released, HPLC; higher = more TPA released; extreme values may be limits of the assay; conditions: 24 h
Protocol: as §1

[3] = PET hydrolysis product formed (TPA+MHET+BHET, UV-Vis) per mg enzyme (mmol/mg enzyme); higher = more PET depolymerisation activity; extreme values may be limits of the assay; conditions: 2 h
Protocol: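 Purified PET hydrolases (His-SUMO cleaved, E. coli C41(DE3) small-scale expression), 2.5 ug enzyme on 3.5 mg amorphous PET film (aFilm) or crystalline PET powder (cryPow) in 0.5 mL of 50 mM buffer (NaCitrate pH 4.5/5.5, NaPhosphate 6.5/7.5, glycine 8.5/9.5) at 60 or 70 C with shaking for 2 h. Soluble aromatic products (TPA+MHET+BHET) were quantified by UV-Vis at 260/280 nm, blank-subtracted against the no-enzyme control, and normalised per mg enzyme; duplicate reactions.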

[4] = MHET released, HPLC; higher = more MHET released; extreme values may be limits of the assay; conditions: 24 h
Protocol: as §1

QDNPYERGPDPTEDSIEAIRGPFSVATERVSSFASGFGGGTIYYPRETDEGTFGAVAVAPGFTASQGSMSWYGERVASHGFIVFTIDTNTRLDAPGQRGRQLLAALDYLVERSDRKVRERLDPNRLAVMGHSMGGGGSLEATVMRPSLKASIPLTPWHLDKTWGQVQVPTFIIGAELDTIAPVSTHAKPFYESLPSSLPKAYMELCGATHFAPNIPNTTIAKYVISWLKRFVDEDTRYSQFLCPNPTDRAICEYRSTCPY [Cut190*SS]
Conditions | MHET released, [4] [mM] | PET hydrolysis product formed, [1] | PET hydrolysis product formed, [3] | terephthalic acid, [2] [mM]
PET substrate: aFilm, 60 °C, pH 4.5 | 0 | 0 | 0 | 0
PET substrate: aFilm, 60 °C, pH 5.5 | 0.00789 | 0 | 0 | 0
PET substrate: aFilm, 60 °C, pH 6.5 | 0.04 | 0.0256 | 0 | 0.00808
PET substrate: aFilm, 60 °C, pH 7.5 | 0.208 | 0.154 | 0.00672 | 0.0544
PET substrate: aFilm, 60 °C, pH 8.5 | 0.0945 | 0.0616 | 0 | 0.0241
PET substrate: aFilm, 60 °C, pH 9.5 | 0.155 | 0.162 | 0.0106 | 0.319
PET substrate: aFilm, 70 °C, pH 4.5 | 0 | 0 | 0 | 0
PET substrate: aFilm, 70 °C, pH 5.5 | 0 | 0 | 0 | 0
PET substrate: aFilm, 70 °C, pH 6.5 | 0 | 0 | 0 | 0
PET substrate: aFilm, 70 °C, pH 7.5 | 0.234 | 0.191 | 0.00376 | 0.142
PET substrate: aFilm, 70 °C, pH 8.5 | 0.00747 | 0 | 0 | 0
PET substrate: aFilm, 70 °C, pH 9.5 | 0.0894 | 0.169 | 0.0215 | 0.477
PET substrate: cryPow, 60 °C, pH 4.5 | 0 | 0 | 0 | 0
PET substrate: cryPow, 60 °C, pH 5.5 | 0.0526 | 0.0274 | 0 | 0.0115
PET substrate: cryPow, 60 °C, pH 6.5 | 0.1 | 0.0533 | 0.0096 | 0.016
PET substrate: cryPow, 60 °C, pH 7.5 | 0.202 | 0.0968 | 0.0258 | 0.0676
PET substrate: cryPow, 60 °C, pH 8.5 | 0.171 | 0.0772 | 0.0105 | 0.04
PET substrate: cryPow, 60 °C, pH 9.5 | 0.11 | 0.0813 | 0.0109 | 0.302
PET substrate: cryPow, 70 °C, pH 4.5 | 0 | 0 | 0 | 0
PET substrate: cryPow, 70 °C, pH 5.5 | 0.00708 | 0 | 0 | 0
PET substrate: cryPow, 70 °C, pH 6.5 | 0.0193 | 0.00998 | 0 | 0.00353
PET substrate: cryPow, 70 °C, pH 7.5 | 0.0639 | 0.031 | 0.00904 | 0.0546
PET substrate: cryPow, 70 °C, pH 8.5 | 0.02402 | 0.0112 | 0 | 0.01301
PET substrate: cryPow, 70 °C, pH 9.5 | 0.00359 | 0.0149 | 0.00521 | 0.0846
